The values below come from article PMC6415948.

pKd: −log10 of the molar value.

What all share (assay): SPR
(In SPR one partner is held on a chip, and binding of the other changes the refractive index at the surface.)

Experiment [1] concerns the target Human IgG1 Fc, G2F N-glycan (digalactosylated, core-fucosylated) (human).
In experiment [2] the target is Human IgG1 Fc, G0 N-glycan (agalactosylated, afucosylated) (human).
Experiment [3] concerns the target Human IgG1 Fc, G0F N-glycan (agalactosylated, core-fucosylated) (human).
Experiment [4] concerns the target Human IgG1 Fc, afucosylated, mixed N-glycans (G0, G1 and G2) (human).
Experiment [5] has as its target Human IgG1 Fc, fucosylated, mixed N-glycans (predominantly G0F/G1F/G2F) (human).

In general, pKd refers to the negative decadic logarithm of the Kd, by convention in mol/L. Read a high pKd as a small Kd. As for “CD16a N38Q/N74Q/N169Q following treatment with Endoglycosidase F1 (N-glycans truncated to a single (1)GlcNAc) (receptor)”, the results for the pKd in experiment [1], in experiment [2] and in experiment [3] were 8.80, 8.89 and 8.54, respectively.

With “CD16a (Fc γ receptor IIIa), wild type, Man5 glycoform”, the pKd in experiment [1] was 8.00; in experiment [2] it was 8.62; in experiment [4] it was 8.60; in experiment [5], 7.24; in experiment [3], 7.74.

Substance “CD16a N38Q/N45Q/N74Q/N169Q, Man5 glycoform (receptor)” showed a negative logarithm of the Kd (pKd) in experiment [3] of 6.44.

As for “CD16a, wild type, following treatment with Endoglycosidase F1 (N-glycans truncated to a single (1)GlcNAc) (receptor)”, the figures for the pKd in experiment [1], in experiment [2] and in experiment [3] were 8.70, 8.77 and 8.43, respectively.

As to “CD16a, wild type, Man9 glycoform (receptor)”, the negative-log Kd (pKd) was 8.40 in experiment [4] and 7.19 in experiment [5].

Regarding “CD16a, wild type, complex-type glycoform (receptor)”, the pKd is 7.42 in experiment [4] and 6.61 in experiment [5].
